Reference: publication PMC11259132, “Tyrosine phenol-lyase inhibitor quercetin reduces fecal phenol levels in mice” (PNAS Nexus, 2024)

Substrate: N[C@@H](Cc1ccc(O)cc1)C(=O)O
Assay: enzyme kinetics (Km), phenol by LC-MS
Format: biochemical, Morganella morganii
Settings: pyridoxal […]'-phosphate (PLP)

B1: Tyrosine phenol-lyase (TPL) (Morganella morganii subsp. morganii KT) (protein)
chain: MMYPAEPYRIKSVETVSMIPREERIKRMKEAGYNTFLLNSKDVYVDLLTDSGTNAMSDKQWAGMMMGDEAYAGSENFFHLERTVQELFGFKHIVPTHQGRGAENLLSSLAIKPGQYVAGNMYFTTTRYHQEKNGATFIDIVRDEAHDAGLDVKFKGNIDIKKLEKLIAEKGAENIAYICLAVTVNLAGGQPVSMANMREVRQLCDKHGIKVFYDATRCVENAYFIKEQEEGFEDVSIKDIVHEMFSYADGCTMSGKKDCLVNIGGFLCMNDDDMFSAARELVVVYEGMPSYGGLAGRDMEAMAIGLREAMQFEYIEHRVKQVRYLGEKLKAAGVPIVEPVGGHAVFLDARRFCPHLTQDEFPAQSLAASIYMETGVRSMERGIISAGRNKETGDHHRPKLETVRLTIPRRVYTYAHMDLVADGIIKLFKHKEDIKGLKFVYEPKQLRFFTARFDYV
notes: recombinant TPL from M. morganii ssp. morganii (JCM1672), pET-15b
B1 gave a Km of 270 µM.
